Measurements taken from patent publication US20250000991A1, “NECTIN-4 ANTIBODIES AND ANTIBODY-DRUG CONJUGATES” (Eli Lilly and Company, priority 2023, published 2025).
Residue numbers refer to the chain shown, from its start.

T1: human Nectin-4 (Homo sapiens, UniProt Q96NY8)
T1 construct: His tag; purchased Acro Biosystems NE4-H52H3
T1 sequence (Q96NY8 32-510): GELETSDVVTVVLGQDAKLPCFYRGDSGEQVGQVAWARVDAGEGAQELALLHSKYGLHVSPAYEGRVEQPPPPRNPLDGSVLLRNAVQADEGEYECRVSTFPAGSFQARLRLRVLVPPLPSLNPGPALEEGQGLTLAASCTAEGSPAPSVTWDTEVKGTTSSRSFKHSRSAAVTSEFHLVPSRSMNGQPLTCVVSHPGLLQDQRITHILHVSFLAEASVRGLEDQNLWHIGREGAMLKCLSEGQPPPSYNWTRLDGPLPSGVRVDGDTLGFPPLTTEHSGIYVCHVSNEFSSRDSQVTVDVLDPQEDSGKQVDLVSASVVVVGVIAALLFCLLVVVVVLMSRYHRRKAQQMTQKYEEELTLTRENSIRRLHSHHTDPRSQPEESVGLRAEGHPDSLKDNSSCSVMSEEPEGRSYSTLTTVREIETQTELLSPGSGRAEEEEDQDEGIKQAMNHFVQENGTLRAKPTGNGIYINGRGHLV

B1: Ab3 (conjugate)
heavy: EVQLVESGGGLVKPGGSLRLSCAASGFNLNHYNMNWVRQAPGKGLEWVSSVSSGGGFRYYADSVRGRFTISRDNAKNSLYLQMNSLRAEDTAVYYCARGAVFHDAFDIWGQGTLVTVSSASTKGPSVFPLAPSSKSTSGGTAALGCLVKDYFPEPVTVSWNSGALTSGVHTFPAVLQSSGLYSLSSVVTVPSSSLGTQTYICNVNHKPSNTKVDKRVEPKSCDKTHTCPPCPAPEAAGGPSVFLFPPKPKDTLMISRTPEVTCVVVSVSHEDPEVKFNWYVDGVEVHNAKTKPREEQYNSTYRVVSVLTVLHQDWLNGKEYKCKVSNKALPAPIEKTISKAKGQPREPQVYTLPPSREEMTKNQVSLTCLVKGFYPSDIAVEWESNGQPENNYKTTPPVLDSDGSFFLYSKLTVDKSRWQQGNVFSCSVMHEALHNHYTQKSLSLSPGK
light: DIQLTQSPSFLSASVGDRVTITCRASQDISSYLAWYQQKPGKAPKLLIYVASTLQSGVPSRFSGSGSGTEFTLTISSLQPEDFATYYCQQINSYPFTFGQGTKVEIKRTVAAPSVFIFPPSDEQLKSGTASVVCLLNNFYPREAKVQWKVDNALQSGNSQESVTEQDSKDSTYSLSSTLTLSKADYEKHKVYACEVTHQGLSSPVTKSFNRGEC
B2: Ab4 (conjugate)
heavy: QVQLQESGPGLVKPSETLSLTCTVSGGSISGYYWSWIRQPPGKGLEWIGYIYYSGSTNYNPSLKSRVTISVDTSKNQFSLKLSSVTAADTAVYYCARLGIFFDAFDIWGQGTLVTVSSASTKGPSVFPLAPSSKSTSGGTAALGCLVKDYFPEPVTVSWNSGALTSGVHTFPAVLQSSGLYSLSSVVTVPSSSLGTQTYICNVNHKPSNTKVDKRVEPKSCDKTHTCPPCPAPEAAGGPSVFLFPPKPKDTLMISRTPEVTCVVVSVSHEDPEVKFNWYVDGVEVHNAKTKPREEQYNSTYRVVSVLTVLHQDWLNGKEYKCKVSNKALPAPIEKTISKAKGQPREPQVYTLPPSREEMTKNQVSLTCLVKGFYPSDIAVEWESNGQPENNYKTTPPVLDSDGSFFLYSKLTVDKSRWQQGNVFSCSVMHEALHNHYTQKSLSLSPGK
light: B1 light with D28G, V50A, I91F, F96W
B3: Ab5 (conjugate)
heavy: QVQLVQSGAEVKKPGASVKVSCKASGYTFTSYYVHWVRQAPGQGLEWMGIINPSIISTSYAQKFQARVTMTRDTSTSTVYMELSSLRSEDTAVYYCARGLNFDAFDIWGQGTLVTVSSASTKGPSVFPLAPSSKSTSGGTAALGCLVKDYFPEPVTVSWNSGALTSGVHTFPAVLQSSGLYSLSSVVTVPSSSLGTQTYICNVNHKPSNTKVDKRVEPKSCDKTHTCPPCPAPEAAGGPSVFLFPPKPKDTLMISRTPEVTCVVVSVSHEDPEVKFNWYVDGVEVHNAKTKPREEQYNSTYRVVSVLTVLHQDWLNGKEYKCKVSNKALPAPIEKTISKAKGQPREPQVYTLPPSREEMTKNQVSLTCLVKGFYPSDIAVEWESNGQPENNYKTTPPVLDSDGSFFLYSKLTVDKSRWQQGNVFSCSVMHEALHNHYTQKSLSLSPGK
light: B1 light with D28G, V50A, I91L, S93N
B4: Ab6 (conjugate)
heavy: QVQLVQSGAEVKKPGASVKVSCKASGYTFTGYYMHWVRQAPGQGLEWMGIINPSGGSTTYAQKFQGRVTMTRDTSTSTVYMELSSLRSEDTAVYYCARGRLGTYFDYWGQGTLVTVSSASTKGPSVFPLAPSSKSTSGGTAALGCLVKDYFPEPVTVSWNSGALTSGVHTFPAVLQSSGLYSLSSVVTVPSSSLGTQTYICNVNHKPSNTKVDKRVEPKSCDKTHTCPPCPAPEAAGGPSVFLFPPKPKDTLMISRTPEVTCVVVSVSHEDPEVKFNWYVDGVEVHNAKTKPREEQYNSTYRVVSVLTVLHQDWLNGKEYKCKVSNKALPAPIEKTISKAKGQPREPQVYTLPPSREEMTKNQVSLTCLVKGFYPSDIAVEWESNGQPENNYKTTPPVLDSDGSFFLYSKLTVDKSRWQQGNVFSCSVMHEALHNHYTQKSLSLSPGK
light: SYVLTQPPSVSVAPGQTARITCGGNNIGSKSVHWYQQKPGQAPVLVVYDDSDRPSGIPERFSGSNSGNTATLTISRVEAGDEADYYCQVWDRSSDQVVFGGGTKLTVLGQPKAAPSVTLFPPSSEELQANKATLVCLISDFYPGAVTVAWKADSSPVKAGVETTTPSKQSNNKYAASSYLSLTPEQWKSHRSYSCQVTHEGSTVEKTVAPTECS

Experiments:
[1] = tested on: T24 mScarlet clone 5 Nectin-4 negative cells; test: Bystander killing of T24-mScarlet clone 5 cells co-cultured with T24-human nectin4 clone108 (imaging); assay type: cell-based; conditions: T24-mScarlet clone5 : T24-human nectin4 clone108 9:1, 5 days, ADC Formula XI DAR 8; read-out: IC50 of bystander effect
Procedure: T24 cell line was engineered to express mScarlet and clonally selected to test in bystander assay. T24-mScarlet clone5 and T24-human nectin4 clone108 were mixed and seeded at a total of 1000 cells/well/100 ul with a ratio of 9:1 in culture medium (McCoy's 5A+1× GlutaMax+10% Heat Inactivated Fetal Bovine Serum+400 μg/ml G418) in flat clear bottom 96-well plates. T24 mScarlet clone 5 cells were negative for nectin-4 expression. Plates were incubated at 37° C. with 5% CO2 overnight. Next day, ADCs were added at final working concentration from 50 nM, 1:4 serially diluted in culture medium. Plates were covered with Breathe-Easy® sealing membrane, placed in BioSpa and scanned in Cytation5 every day for 5 days.
Images of T24-mScarlet cells were captured and analyzed by Cytation5 with Gen5 Image Prime 3.11. Percentage of T24-mScarlet cell killing was calculated by decreased Integrated Intensity (area×mean intensity), normalized to zero hour and no treatment. Data was graphed and analyzed using GraphPad Prism version 9.5.1. IC50 was determined via log(inhibitor) vs. response-variable slope (four parameters) curve fitting.

human Nectin-4 = molecular target: T1, human Nectin-4; test: Surface plasmon resonance (Biacore 8K+) binding of nectin-4 ADCs to human Nectin-4; conditions: human Nectin-4, 37° C., ADC Formula XI DAR 8; n=3 mean ± SD, n=2 replicate values
Procedure: (§1) An anti-human Fc sensor surface was prepared by amine-coupling of goat anti-human IgG Fc (Southern Biotech Cat. No. 2014-01, Birmingham, AL) to a Biacore Series S CM4 (Cytiva Cat. No. BR-100534) sensor surface at 25° C. For immobilization, a running buffer of 10 mM HEPES, 150 mM NaCl, 0.05% Tween-20, pH 7.4 was used. Flow cells 1 & 2 of all 8 channels were activated with a 1:1 (v/v) mixture of 400 mM 1-Ethyl-3-(3-dimethylaminopropyl) carbodiimide hydrochloride (EDC) and […] N-Hydroxysuccinimide (NHS) at a flow rate of 10 uL/min for 7 minutes. Then the anti-human IgG Fc capture reagent was coupled to the sensor surface (diluted to 50 μg/mL in 10 mM Acetate pH 4.5 buffer) by injecting it in all flow cells and channels at a flow rate of 10 uL/min for 7 minutes. Remaining active groups were blocked by injecting 100 mM ethylenediamine (in 200 mM Borate buffer, pH 8.5) in all flow cells and channels at a flow rate of 10 uL/min for 7 minutes. All channels and flow cells were then preconditioned using three consecutive 1-minute injections of 75 mM phosphoric acid at 10 uL/min.
(§2) In each analysis cycle, a different ADC was captured on flow cell 2 of each channel by injecting it at 5 μg/mL and 10 uL/min. After capture, the same analyte was injected on flow cells 1 and 2 in all 8 channels for 2 minutes at 30 uL/n and dissociation was monitored for 10 minutes. After dissociation, all surfaces were regenerated with three 1-minute injections of 5 mM phosphoric acid at 10 uL/min. ADC capture and analyte cycles were repeated to obtain analyte binding of each ADC at concentrations of 0, 2.5, 7.4, 22, 67, 200 and 600 nM nectin-4.
(§3) Sensorgram data were fit globally with the default 1:1 binding model in Biacore Insight Evaluation Software v3.0.12.15655.

cyno Nectin-4 = test: Surface plasmon resonance (Biacore 8K+) binding of nectin-4 ADCs to cyno Nectin-4; conditions: cyno Nectin-4, 37° C., ADC Formula XI DAR 8, n=1
Procedure: as §1, §2, §3

rat Nectin-4 = test: Surface plasmon resonance (Biacore 8K+) binding of nectin-4 ADCs to rat Nectin-4; conditions: rat Nectin-4, 37° C., ADC Formula XI DAR 8, n=1
Procedure: as §1, §2, §3

Molecule	IC50 [1] [nM]	ka (human Nectin-4)	kd (human Nectin-4)	ka (cyno Nectin-4) [M⁻¹ s⁻¹]	kd (cyno Nectin-4) [s⁻¹]	ka (rat Nectin-4) [M⁻¹ s⁻¹]	kd (rat Nectin-4) [s⁻¹]	KD (rat Nectin-4; KD = kd/ka)	KD (cyno Nectin-4; KD = kd/ka)
B1	0.047	(4.24 ± 0.76) × 10^5 1/Ms	(4.37 ± 1.56) × 10^−4 1/s	432000	0.000426	171000	0.000903		
B2	0.0798	(3.59 ± 0.80) × 10^5 1/Ms	(7.32 ± 1.19) × 10^−2 1/s	380000				weak binding	
B3	0.0766	(8.78 ± 1.07) × 10^5 1/Ms	(3.46 ± 0.48) × 10^−3 1/s	1.06e+06	0.0033	636000	0.0199		
B4	0.0587	(1.78 ± 0.41) × 10^6 1/Ms	(1.63 ± 0.25) × 10^−1 1/s			925000	0.105		heterogeneous kinetics*
